Patent publication US20210347914A1 (BANYAN BIOMARKERS, published 2021)
Numbering of substitutions follows the chain as printed.

B1: UCH-L1-1 (antibody, V domains shown)
VH: QVQLQQPGSELVRPGASVKLSCKASGYTFTSYWMHWVKQRPGQGLEWIGNIYPGSGSTNYDEKFKSKATLTVDTSSSTAYMQLSSLTSEDSAVYYCTREDYWGQGTTLTVSS
VL: DVLMTQTPLSLPVSLGDQASISCRSSQNIVHSNGNTYLEWYLQKPGQSPKLLIYKVSNRFSGVPDRFSGSGSGTDFTLKISRVEAEDLGVYYCFQGSHVPFTFGSGTKLEIK
notes: also called mouse anti-UCH-L1 antibody UCH-L1-1
B2: UCH-L1-3 (antibody, V domains shown)
VH: B1 VH with K23R, M34I, P41H, S57I, S66T, A68G, A79V, Q82H, S84I
VL: B1 VL with N28S, R82G, A85T, S105G
notes: also called mouse anti-UCH-L1 antibody UCH-L1-3
B3: UCH-L1-2 (antibody, V domains shown)
VH: EVMLVESGGGLVKPGGSLKLSCAASGFIFSSHAMSWIRQIPEKRLEWVATISSGGSNTYYPDSVKGRFTISRDNAKNILYLQMSSLRSEDTAIYYCTRHGEVRRGYYFDYWGQGTTLTVSS
VL: DIQMTQTPSSLSASLGDRVTISCSASQGITNYLNWYQQKPDGTVKLLIYYTSSLHSGVPSRFSGSGSGTDYSLTISNLEPEDFATYYCQHYSNLPWTFGGGTKLEIK
notes: also called mouse anti-UCH-L1 antibody UCH-L1-2
B4: UCH-L1-7 (antibody, V domains shown)
VH: EVQLQQSGPELVKPGASVKISCKTSGYTFTEYTMHWVKQSHGKSLDWIGGINPNNGRTSYNQKFKGKATLTVDKSSSTAYMELRSLTSEDSAVYYCARRLGRGFYFDYWGQGTTLTVSS
VL: DIVLTQSPASLAVSLGQRATISCRASESVDSYGNNLMHWYQQKPGQPPKLLIYLSSNLESGIPARFSGRGSRTDFTLTINPVEADDVATYYCQQSNGDPYTFGGGTKLEIK
notes: also called mouse anti-UCH-L1 antibody UCH-L1-7
B5: UCH-L1-10 (antibody, V domains shown)
VH: B4 VH with E10D, A16T, K43R, D46E, I51F, A97S, G101Y
VL: B4 VL with P47S, L54R, S55A, A64G, T76S
notes: also called mouse anti-UCH-L1 antibody UCH-L1-10
B6: UCH-L1-9 (antibody, V domains shown)
VH: B4 VH with A92T
VL: B4 VL with L36F, I110M
notes: also called mouse anti-UCH-L1 antibody UCH-L1-9
B7: UCH-L1-6 (antibody, V domains shown)
VH: B4 VH with E82D, L83F
VL: B4 VL with D30E, M37I, P44L, S60P, K111R
notes: also called mouse anti-UCH-L1 antibody UCH-L1-6
B8: UCH-L1-8 (antibody, V domains shown)
VH: B4 VH with E10D, A16T, K43R, D46E, I51L, T78I
VL: B4 VL with P47S, L54R, S55A, A64G
notes: also called mouse anti-UCH-L1 antibody UCH-L1-8
B9: UCH-L1-4 (antibody, V domains shown)
VH: AVQLQQSGPELVKPGASVKISCKTSGDTFTEHFMNWVKQSHGESLEWIGIINPYTDGTNYDQKFKDKATLTVDKSSSTAYMELRSLTSEDSAVYYCARWGGDGEGYWGQGTTLTVSS
VL: DIVMTQAAPSVSVTPGESVSISCRSSKSLLHSNGNTYLYWFLKRPGQSPQLLIYRMSNLASGVPDRVSGSGSGTAFTLRISRVEAEDVGIYYCMQHLEYPLTFGAGTKLELK
notes: also called mouse anti-UCH-L1 antibody UCH-L1-4
B10: UCH-L1-5 (antibody, V domains shown)
VH: EVKLVESGGGSVQPGGSLSLSCAASGFTFTEYYMSWVRQFPGKALEWLAFIRNRAHGYTTEYSASVKGRFTISRDNSQSILYLQMNALRTEDSATYYCASSYGAPFAYWGQGTLVSVSA
VL: B9 VL with S12P, N33D, K43Q, V67F, I90V
notes: also called mouse anti-UCH-L1 antibody UCH-L1-5; HRP-labeled anti-UCH-L1 detection antibody

Target: T1, Polyhistidine-tagged recombinant human UCH-L1 expressed from E. coli (human, UniProt P09936 1-223, limits assumed)
T1 construct: also called UCH-L1-His; not shown: polyhistidine tag
T1 sequence (P09936 whole entry): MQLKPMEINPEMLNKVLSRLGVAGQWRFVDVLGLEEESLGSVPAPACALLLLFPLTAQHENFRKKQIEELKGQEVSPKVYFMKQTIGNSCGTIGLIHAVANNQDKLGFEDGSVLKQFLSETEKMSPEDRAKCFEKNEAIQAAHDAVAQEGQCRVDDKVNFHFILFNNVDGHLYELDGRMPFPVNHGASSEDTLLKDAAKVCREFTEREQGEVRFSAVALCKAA
Assay: BLI (Octet QKe); His-tagged UCH-L1 on anti-Penta-HIS sensor, antibody in solution
Experimental: The rates of association (kₒₙ) and dissociation (koff) of the anti-UCH-L1 antibodies were determined by bio-layer interferometry using an Octet QK^e instrument according to the manufacturer's instructions (ForteBio). See Tobias et al., Biomolecular Binding Kinetic Assays in the Octet Platform, Application Note 14, ForteBio, Div. of Pall Life Sciences, 2013. Polyhistidine-tagged recombinant human UCH-L1 expressed from E. coli was used as the antigen. The antigen was bound at a concentration of […] to an anti-Penta-HIS(HIS1K) capture biosensor containing an anti-histidine antibody (ForteBio) for use with the Octet QK^e instrument.

Going from B1 to B2, the Kd rises from < 0.001 nM to 0.367 nM. The first binds more tightly here.

Compared with B3, B4 is 11-fold lower in Kd: 0.207 nM for the first, 0.0187 nM for the second. The second binds more tightly here.

Compared with B5, B6 is 2-fold higher in Kd: 0.043 nM for the first, 0.0857 nM for the second. The first binds more tightly here.

Compared with B7, B8 is higher in Kd: < 0.001 nM for the first, 0.0474 nM for the second.

Going from B9 to B10, the Kd falls from 0.0369 nM to < 0.001 nM.

Compared with B1, B2 is higher in koff: < 1e-07 s⁻¹ for the first, 1.34e-05 s⁻¹ for the second.

Going from B3 to B4, the koff falls from 3.01e-05 s⁻¹ to 2.5e-06 s⁻¹ (12-fold).

Going from B5 to B6, the koff rises from 4.6e-06 s⁻¹ to 1.01e-05 s⁻¹ (2.2-fold).

Going from B7 to B8, the koff rises from 1e-07 s⁻¹ to 6.7e-06 s⁻¹ (67-fold).

Compared with B9, B10 is 140-fold lower in koff: 1.4e-05 s⁻¹ for the first, 1e-07 s⁻¹ for the second.

In order of falling kon:
1. B10  459000 M⁻¹ s⁻¹
2. B9  378000 M⁻¹ s⁻¹
3. B3  146000 M⁻¹ s⁻¹
4. B7  145000 M⁻¹ s⁻¹
5. B8  141000 M⁻¹ s⁻¹
6. B4  133000 M⁻¹ s⁻¹
7. B6  118000 M⁻¹ s⁻¹
8. B5  107000 M⁻¹ s⁻¹
9. B1  58800 M⁻¹ s⁻¹
10. B2  36400 M⁻¹ s⁻¹
